Results from patent publication US20180037904A1.

Assays:
[1] = molecular target: Rubisco from wheat (wheat) (UniProt P11383); test: cell-based or functional assay
[2] = molecular target: Rubisco (Ribulose-1,5-bis-phosphate carboxylase/oxygenase) purified from Oryza sativa leaves (Oryza sativa) (UniProt P0C512); test: cell-based or functional assay
[3] = molecular target: Rubisco (Ribulose-1,5-bis-phosphate carboxylase/oxygenase) purified from Oryza sativa leaves, P0C512

Row | Molecule | Rubisco activation activity of recombinant RCA at 30 and 36° C. [3] | concentration-dependent specific activity of ATP hydrolysis | temperature stability of ATP hydrolysis | further results
1 | beta isoform of RCA extracted from wheat leaves (0.2 M KCl anion-exchange fraction) (enzyme) |  |  |  | activation of wheat Rubisco by leaf-extracted beta isoform at less than 34° C., relative to the rice RCA isoforms [1]: > 2 fold
2 | leaf-extracted RCA from Oryza sativa (partially purified, alpha and beta isoforms) (from UniProt P93431 49-466; P93431 49-428) (enzyme) |  |  |  | reduction in fraction of Rubisco activated at comparable temperatures [2]: 80%
3 | recombinant Oryza australiensis Rubisco activase (RCA), beta (short) isoform (protein) MAKELDEDKQTDQDKWKGLAYDISDDQQDITRGKGLVDSLFQAPMGDGTHEAVLSSYEYLSQGLKMLDNTMGGFYIAPAFMDKLVVHISKNFMALPNIKVPLILGIWGGKGQGKSFQCELVFSKMGINPIMMSAGELESGNAGEPAKLIRQRYREAADIIKKGKMCCLFINDLDAGAGRMGGTTQYTVNNQMVNATLMNIADNPTNVQLPGMYNKEDNPRVPIIVTGNDFSTLYAPLIRDGRMEKFYWAPTRDDRVGVCKGIFRTDNVPDEDIVKIVDSFPGQSIDFFGALRARVYDDEVRKWVSDTGVENIGKKLVNSREGPPEFEQPKMTIDKLMEYGHMLVREQENVKRVQLADKYLSEAALGDANSDAMKTGSFYGAAPSS | the β isoform of RCAOs has higher activity than RCAOa | specific activity of ATP hydrolysis falls at low RCA concentrations | both being heat stable, not losing activity until 40 °C | 
4 | leaf-extracted RCA from Oryza australiensis (partially purified, alpha and beta isoforms) (protein) chain 1: KELDEDKQTDQDKWKGLAYDISDDQQDITRGKGLVDSLFQAPMGDGTHEAVLSSYEYLSQGLKMLDNTMGGFYIAPAFMDKLVVHISKNFMALPNIKVPLILGIWGGKGQGKSFQCELVFSKMGINPIMMSAGELESGNAGEPAKLIRQRYREAADIIKKGKMCCLFINDLDAGAGRMGGTTQYTVNNQMVNATLMNIADNPTNVQLPGMYNKEDNPRVPIIVTGNDFSTLYAPLIRDGRMEKFYWAPTRDDRVGVCKGIFRTDNVPDEDIVKIVDSFPGQSIDFFGALRARVYDDEVRKWVSDTGVENIGKKLVNSREGPPEFEQPKMTIDKLMEYGHMLVREQENVKRVQLADKYLSEAALGDANSDAMKTGSFYGQGAQQGGNLPVPEGCTDPVAKNFDPTARSDDGSCLYTF chain 2: KELDEDKQTDQDKWKGLAYDISDDQQDITRGKGLVDSLFQAPMGDGTHEAVLSSYEYLSQGLKMLDNTMGGFYIAPAFMDKLVVHISKNFMALPNIKVPLILGIWGGKGQGKSFQCELVFSKMGINPIMMSAGELESGNAGEPAKLIRQRYREAADIIKKGKMCCLFINDLDAGAGRMGGTTQYTVNNQMVNATLMNIADNPTNVQLPGMYNKEDNPRVPIIVTGNDFSTLYAPLIRDGRMEKFYWAPTRDDRVGVCKGIFRTDNVPDEDIVKIVDSFPGQSIDFFGALRARVYDDEVRKWVSDTGVENIGKKLVNSREGPPEFEQPKMTIDKLMEYGHMLVREQENVKRVQLADKYLSEAALGDANSDAMKTGSFYGAAPSS |  |  |  | absolute rate of Rubisco activation at 42° C. relative to Os RCA [3]: at 42 °C Oa had an absolute rate of activity four-times that of Os; drop in Rubisco activation activity at 42° C. relative to 30° C., RCA at 0.96 mg·mL^-1 [3]: close to a 50% drop in activity at 42 °C relative to 30 °C; fall in Rubisco activation activity at 42° C. relative to 30° C., RCA at 0.24 and 0.49 mg·mL^-1 [3]: less than a 20% fall at concentrations of 0.24 and 0.49 mg·mL^-1; peak in RCA activation performance (temperature of maximal Rubisco activation) [3]: 33.0±0.3 °C for O. australiensis
5 | leaf-extracted RCA from Oryza sativa (partially purified, alpha and beta isoforms) (protein) chain 1: KELDEGKQTDQDRWKGLAYDISDDQQDITRGKGFVDSLFQAPTGDGTHEAVLSSYEYLSQGLRTYDFDNTMGGFYIAPAFMDKLVVHISKNFMTLPNIKVPLILGIWGGKGQGKSFQCELVFAKMGINPIMMSAGELESGNAGEPAKLIRQRYREAADIIKKGKMCCLFINDLDAGAGRMGGTTQYTVNNQMVNATLMNIADNPTNVQLPGMYNKEDNPRVPIIVTGNDFSTLYAPLIRDGRMEKFYWAPTRDDRVGVCKGIFRTDNVPDEDIVKIVDSFPGQSIDFFGALRARVYDDEVRKWVSDTGVENIGKRLVNSREGPPEFEQPKMTIEKLMEYGYMLVKEQENVKRVQLAEQYLSEAALGDANSDAMKTGSFYGQGAQQAGNLPVPEGCTDPVAKNFDPTARSDDGSCLYTF chain 2: KELDEGKQTDQDRWKGLAYDISDDQQDITRGKGFVDSLFQAPTGDGTHEAVLSSYEYLSQGLRTYDFDNTMGGFYIAPAFMDKLVVHISKNFMTLPNIKVPLILGIWGGKGQGKSFQCELVFAKMGINPIMMSAGELESGNAGEPAKLIRQRYREAADIIKKGKMCCLFINDLDAGAGRMGGTTQYTVNNQMVNATLMNIADNPTNVQLPGMYNKEDNPRVPIIVTGNDFSTLYAPLIRDGRMEKFYWAPTRDDRVGVCKGIFRTDNVPDEDIVKIVDSFPGQSIDFFGALRARVYDDEVRKWVSDTGVENIGKRLVNSREGPPEFEQPKMTIEKLMEYGYMLVKEQENVKRVQLAEQYLSEAALGDANSDAMKTGSFYGSAPSS |  |  |  | peak in RCA activation performance (temperature of maximal Rubisco activation) [3]: 29.9±0.5 °C for O. sativa
6 | recombinant Oryza sativa Rubisco activase (RCA), beta (short) isoform (protein) MAKELDEGKQTDQDRWKGLAYDISDDQQDITRGKGFVDSLFQAPTGDGTHEAVLSSYEYLSQGLRTYDFDNTMGGFYIAPAFMDKLVVHISKNFMTLPNIKVPLILGIWGGKGQGKSFQCELVFAKMGINPIMMSAGELESGNAGEPAKLIRQRYREAADIIKKGKMCCLFINDLDAGAGRMGGTTQYTVNNQMVNATLMNIADNPTNVQLPGMYNKEDNPRVPIIVTGNDFSTLYAPLIRDGRMEKFYWAPTRDDRVGVCKGIFRTDNVPDEDIVKIVDSFPGQSIDFFGALRARVYDDEVRKWVSDTGVENIGKRLVNSREGPPEFEQPKMTIEKLMEYGYMLVKEQENVKRVQLAEQYLSEAALGDANSDAMKTGSFYGSAPSS | the β isoform of RCAOs has higher activity than RCAOa | specific activity of ATP hydrolysis falls at low RCA concentrations | both being heat stable, not losing activity until 40 °C | 
7 | recombinant Oryza sativa Rubisco activase (RCA), alpha (long) isoform (protein) MAKELDEGKQTDQDRWKGLAYDISDDQQDITRGKGFVDSLFQAPTGDGTHEAVLSSYEYLSQGLRTYDFDNTMGGFYIAPAFMDKLVVHISKNFMTLPNIKVPLILGIWGGKGQGKSFQCELVFAKMGINPIMMSAGELESGNAGEPAKLIRQRYREAADIIKKGKMCCLFINDLDAGAGRMGGTTQYTVNNQMVNATLMNIADNPTNVQLPGMYNKEDNPRVPIIVTGNDFSTLYAPLIRDGRMEKFYWAPTRDDRVGVCKGIFRTDNVPDEDIVKIVDSFPGQSIDFFGALRARVYDDEVRKWVSDTGVENIGKRLVNSREGPPEFEQPKMTIEKLMEYGYMLVKEQENVKRVQLAEQYLSEAALGDANSDAMKTGSFYGQGAQQAGNLPVPEGCTDPVAKNFDPTARSDDGSCLYTF | there is little difference in activity of the α isoform between the species | specific activity of ATP hydrolysis falls at low RCA concentrations | both being heat stable, not losing activity until 40 °C | 
8 | recombinant Oryza australiensis Rubisco activase (RCA), alpha (long) isoform (protein) MAKELDEDKQTDQDKWKGLAYDISDDQQDITRGKGLVDSLFQAPMGDGTHEAVLSSYEYLSQGLKMLDNTMGGFYIAPAFMDKLVVHISKNFMALPNIKVPLILGIWGGKGQGKSFQCELVFSKMGINPIMMSAGELESGNAGEPAKLIRQRYREAADIIKKGKMCCLFINDLDAGAGRMGGTTQYTVNNQMVNATLMNIADNPTNVQLPGMYNKEDNPRVPIIVTGNDFSTLYAPLIRDGRMEKFYWAPTRDDRVGVCKGIFRTDNVPDEDIVKIVDSFPGQSIDFFGALRARVYDDEVRKWVSDTGVENIGKKLVNSREGPPEFEQPKMTIDKLMEYGHMLVREQENVKRVQLADKYLSEAALGDANSDAMKTGSFYGQGAQQGGNLPVPEGCTDPVAKNFDPTARSDDGSCLYTF | there is little difference in activity of the α isoform between the species | specific activity of ATP hydrolysis falls at low RCA concentrations | both being heat stable, not losing activity until 40 °C | 
